# Assay results: paper PMC9741107, “The L-Rhamnose Biosynthetic Pathway in Trichomonas vaginalis: Identification and Characterization of UDP-D-Glucose 4,6-dehydratase” (International Journal of Molecular Sciences, 2022)
# B1: UDP-D-glucose 4,6-dehydratase from Trichomonas vaginalis (TvUGD, TVAG_414560) (enzyme, Trichomonas vaginalis (strain G3), UniProt A2GEF2 1-348, looked up)
# chain: MSEDYQPHVILLTGGAGFIGSHVCNHLVLKYPDVKIICLDVMDYCANLRNLEEIMNKPNFLFIKGSINNVELVSYIMKTHAVDTVMHFAAQSHVDRSFGNSLEFTHTNILGTHVLLECAKQNNIKRFIHVSTDEVYGEVLSGCAEEEKSILCPTNPYACSKAGAEFMCQAYIRSFNMPIIITRGNNVFGPKQFPEKVIPKFTLLLKAGHKCCIHGDGSALRNFLHTSDVVQAFDTILHKGKLHQIYNIGTDFEISVLEMTKKLIKVLNMPGKPEDWIEFVPDRAFNDSRYMINSSKLIALGWHANTDFDTLLKETVQWYLDHMDYWKDRDINTYLSPHPIAYAPKTAE
# notes: calculated monomer mass 39 kDa; Residues of the vector may remain after protease cleavage; also called TvGD; UDP-D-Glc 4,6-dehydratase; source: E. coli BL21, GST-fusion from pGEX-6P1, purified on GSH-sepharose 4B, GST removed by precision protease cleavage
# How the values were obtained:
# [1] = molecular target: the molecule itself; test: SEC; size-exclusion chromatography of the purified protein on a TSK-gel 3000 column, as described in ref. 23; molecular weight calculated from the elution time
# [2] = substrate: Cc1cn([C@H]2C[C@H](O)[C@@H](COP(=O)(O)OP(=O)(O)O[C@H]3O[C@H](CO)[C@@H](O)[C@H](O)[C@H]3O)O2)c(=O)[nH]c1=O; test: anion-exchange HPLC of substrate consumption, Michaelis-Menten fit; type: biochemical, Trichomonas vaginalis; details: 50 mM Tris/HCl, 150 mM NaCl, pH 7.0, 25 °C, no added NAD(P)+ or bivalent cations needed
# [3] = substrate: O=c1ccn([C@@H]2O[C@H](CO[P@@](=O)(O)O[P@@](=O)(O)O[C@H]3O[C@H](CO)[C@@H](O)[C@H](O)[C@H]3O)[C@@H](O)[C@H]2O)c(=O)[nH]1; test: as above; type: biochemical, Trichomonas vaginalis; details: 50 mM Tris/HCl, 150 mM NaCl, pH 7.0, 25 °C, no added NAD(P)+ or bivalent cations needed
protein,measurement,setting,value
B1,stoichiometry N,[1],2
same,Km,[2],362.8 ± 73.4 µM
same,kcat,[2],0.36 ± 0.03 s⁻¹
same,Km,[3],21.3 ± 3.4 µM
same,kcat,[3],0.39 ± 0.01 s⁻¹
